Laboratory results taken from article PMC5082683 (PLoS Pathogens, 2016).

Biological target: recombinant ectodomain of Gc (rGc) from Hantaan virus strain 76-118 (Hantaan virus strain 76-118, UniProt P08668)
Experiment: SEC-MALS; Gc mixed with an excess of scFv A5, Tris pH 8
Conditions: both partners purified

B1: scFv A5 (scFv, V domains shown)
VH: QVQLQESGPGLVKPSETLSLTCVVSGGSISSSNWWSWVRQPPGKGLEWIGEIYHSGSPNYNPSLKSRVTISVDKSKNQFSLKLSSVTAADTAVYYCARQMRQWGQGTLVTVSS
VL: SSELTQDPAVSVALGQTVRITCQGDSLRSYYASWYQQKPGQAPVLVIYGKNNRPSGIPDRFSGSSSGNTASLTITGAQAEDEADYYCNSRDSSGNHNVFGGGTKLTVL
notes: also called human single-chain variable domain antibody fragment A5
stoichiometry N: 1
